Measured values taken from patent US20180087116, “METHODS AND BIOSENSORS FOR TUMOR DETECTION” (published 2018).

What was measured:
VEGF165 = VEGF165 (UniProt P15692-4 P15692-4:27-191); test: methylene blue release from aptamer/nanomotor, fluorescence increase; linear response 2.5-30 nM VEGF165; human serum samples or PBS, 40 min; conditions: chain copies: 2; label: methylene blue (non-covalently adsorbed)
Experimental: (§1) In this example, the fabricated MB/aptamer/nanomotors of EXAMPLE 1 were guided by a magnetic field into solutions (human serum samples) containing various concentration of VEGF165 to react with the fabricated MB/aptamer/nanomotor for about 40 minutes. MB can specifically bind with guanine bases in ss-DNA and the used aptamer herein as a type of ss-DNA riches of guanine bases. The fabricated MB/aptamer/nanomotors were stored at about 4° C. in the refrigerator when they were not in use. Then, the MB/aptamer/nanomotors biosensor was guided to solutions containing the various concentration of VEGF165 tumor marker. Upon exposing MB/aptamer/nanomotor with VEGF165, the adsorbed MB to aptamers released to the solution and let to increase the fluorescence signal of MB. The proposed nanomotor may be used for ‘on-the-fly’ interaction of biological targets such as VEGF165 by functionalizing the gold surface of the nanomotor with various bio-receptors.
In FIG. 6B, relative fluorescence changes are calculated by F/F0, where F0 (7.8) and F are the fluorescence intensity without and with VEGF165, respectively, and excitation wavelength was 625 nm.

[1] = molecular target: Human serum albumin (HSA) (Homo sapiens, UniProt P02768 P02768:25-609); test: selectivity control, 20 nM HSA in PBS; methylene blue release fluorescence; values only in figure; conditions: label: methylene blue (non-covalently adsorbed)
Sequence of Human serum albumin (HSA) (P02768 25-609, one chain of several): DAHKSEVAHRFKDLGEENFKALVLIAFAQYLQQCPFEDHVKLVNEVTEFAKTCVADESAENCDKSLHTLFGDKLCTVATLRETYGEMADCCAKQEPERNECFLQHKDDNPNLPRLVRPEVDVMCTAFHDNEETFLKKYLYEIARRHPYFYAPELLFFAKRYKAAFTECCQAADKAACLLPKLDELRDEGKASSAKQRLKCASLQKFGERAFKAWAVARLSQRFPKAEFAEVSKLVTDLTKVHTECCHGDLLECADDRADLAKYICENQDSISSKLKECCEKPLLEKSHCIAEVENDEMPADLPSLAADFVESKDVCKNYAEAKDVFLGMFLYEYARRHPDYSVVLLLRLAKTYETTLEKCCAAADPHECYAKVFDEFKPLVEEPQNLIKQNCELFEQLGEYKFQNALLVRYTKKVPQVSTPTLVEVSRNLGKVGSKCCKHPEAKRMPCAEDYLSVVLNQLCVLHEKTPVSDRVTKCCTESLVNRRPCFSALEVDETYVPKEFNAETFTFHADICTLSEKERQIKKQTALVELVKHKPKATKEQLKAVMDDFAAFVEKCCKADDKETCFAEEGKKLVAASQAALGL
Experimental: as §1
In addition, to evaluate the selectivity of the proposed biosensor, some of bio-molecules such as human serum albumin (HSA), bovine serum albumin (BSA), glucose (G), urea (U), dopamine (D) and human immunoglobulin G (HIgG) were used as the potential interferences to evaluate the specificity and the results were shown in FIG. 7.

Sequence of VEGF165 (P15692 other isoform, or with tags, fused parts or gaps): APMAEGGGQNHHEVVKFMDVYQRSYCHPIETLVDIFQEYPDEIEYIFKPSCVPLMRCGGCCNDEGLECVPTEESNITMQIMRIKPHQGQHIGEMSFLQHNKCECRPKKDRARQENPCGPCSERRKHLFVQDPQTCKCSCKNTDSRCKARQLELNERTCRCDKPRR

B1: anti-VEGF DNA aptamer (ssDNA)
DNA: TTTCCCGTCTTCCAGACAAGAGTGCAGGG
modifications: 5'-SH (thiol), immobilised on Au segment of nanomotor
Does B1 bind (VEGF165)?
Result: binds

Does B1 bind [1]?
Result: no binding
